The text below walks through data of PMC8865451.

This assay addresses cs130Fc (human) (UniProt P40189). In words: SPR. (SPR reads the build-up and loss of mass on a sensor chip optically.)

hyper-IL-6 (HIL-6) showed a Kd of 0.059 nM.

As usually defined, the Kd is the equilibrium constant for the complex coming apart. A higher Kd goes with weaker binding.
